Consider two proteins from article PMC3590139, “Isocitrate Dehydrogenase from Streptococcus mutans: Biochemical Properties and Evaluation of a Putative Phosphorylation Site at Ser102” (PLoS ONE, 2013).

Substrate in data set [1]: NC(=O)c1ccc[n+]([C@@H]2O[C@H](COP(=O)(O)OP(=O)(O)OC[C@H]3O[C@@H](n4cnc5c(N)ncnc54)[C@H](O)[C@@H]3O)[C@@H](O)[C@H]2O)c1
Kind of data set: purified protein. To be noted: saturating DL-isocitrate, 35 mM Tris-HCl pH 7.5, […] MnCl2, 37 °C.

Substrate in data set [2]: O=C(O)CC(C(=O)O)C(O)C(=O)O
In words: purified protein. As to conditions: saturating NAD+, 35 mM Tris-HCl pH 7.5, […] MnCl2, 37 °C.

Data set [3] concerns the molecule itself. Kind of data set: SEC; HiLoad 10/300 Superdex 200, 0.05 M potassium phosphate pH 7.0, 0.15 M NaCl, 0.01% NaN3, flow 0.5 ml/min; calibrated with ovalbumin, conalbumin, aldolase, ferritin, thyroglobulin; native mass estimated as 70 kDa against a 43 kDa subunit.

B1: SmIDH (Streptococcus mutans UA159) (protein)
chain: MAEKVSFEEGKLQVPDKPVIPYIEGDGVGQDIWKNAQIVFDKAIAKVYGGHKQVIWREVLAGKKAYNETGNWLPNETLEIIKTHLLAIKGPLETPVGGGIRSLNVALRQELDLFACVRPVRYFKGVPSPLKHPEKTAITIFRENTEDIYAGIEWNAGTAEVQKVINFLQDDMQVKKIRFPKSSSIGIKPISIEGSQRLIRAAIEYALANNLTKVTLVHKGNIQKFTEGGFRKWGYELAKREYAAELASGQLVVDDIIADNFLQQILLKPERFDVVALTNLNGDYASDALAAQVGGIGISPGANINYQTGHAIFEATHGTAPDIAGQDLANPSSVLLSGCMLFDYIGWSKVSDLIMKAVEKAIANGQVTIDFAKELGVEALTTRQFSEVLLTYL
What is called Km is the concentration of substrate that gives half-maximal velocity. As usually defined, the kcat is the number of substrate molecules converted per active site and unit of time at saturation. The term kcat/Km denotes the second-order rate constant that governs catalysis at low substrate concentration. Turning to B1, in the data set “purified protein [1]”, the Km was determined as 154 µM, the turnover number (kcat) came to 56 s⁻¹ and the specificity constant (kcat/Km) turned out to be 360000 M⁻¹ s⁻¹. Moreover, in the data set “purified protein [2]”, the Michaelis-Menten constant (Km) turned out to be 75 µM, the turnover number (kcat) was 124 s⁻¹ and the kcat/Km was determined as 1.65e+06 M⁻¹ s⁻¹.

B2: NAD+-dependent isocitrate dehydrogenase of Streptococcus mutans (enzyme, UniProt Q59940 1-393, looked up)
chain: B1 chain
notes: 399 residues per subunit with the tag; The C-terminal position of the His6 tag is read from the reverse primer R-Sm^icd (CTA + six GTG codons on the antisense strand); also called SmIDH; S. mutans IDH; not shown: His6, C-terminal, kept
As a reminder, the stoichiometry N is a count of units in the complex or per binding partner. Consider B2, for which the “stoichiometry N” value in data set [3] is 2.
